Data published in patent US20060024313A1, “Agents that disrupt dimer formation in DPP-IV family of prolyl dipeptidases” (priority 2004, published 2006).
Several values for one entry are separate records, joined by “and”; a condition that tells them apart may be missing. Identical values can stand only once. Marks after values point to notes of the source that are not given here. Peptide text beside a SMILES is read from it.

Experiments:
DPP-IV [1] = experiment: Kinetic constant measurements with chromogenic substrate H-Gly-Pro-pNA; format: biochemical, human; details: for Km / kcat: substrate H-Gly-Pro-pNA
Protocol: To measure the kinetic parameters, the chromogenic substrate H-Gly-Pro-pNA was utilized to initiate the reaction, which was monitored at OD 405 nm as a function of time (21). […] The initial rate was measured with less than 10% substrate depletion for the first 10 to 300 seconds. The steady-state parameters, kcat and Km, were determined from initial velocity measurements at 0.5 to 5 Km of the substrate concentrations. Lineweaver-Burk plots were analyzed using non-linear regression of the Michaelis-Menten equation. Correlation coefficients better than 0.99 were obtained throughout.

[2] = Size exclusion chromatography (gel filtration, Superdex 200); format: physicochemical; details: gel filtration experiments; PBS buffer
Protocol: Chemical crosslinking in intact cells was conducted as described (24). Size exclusion chromatography was conducted at 4° C. Purified proteins (0.5 ml at a concentration of 5 uM) were applied to a Superdex 200 10/30 column (10×300-310 mm) pre-equilibrated with PBS. The sample was eluted with the same buffer at 0.3 ml/min and 0.25 ml fractions were collected. The Superdex 200 10/30 column was calibrated with the Stokes Radii of ferritin (6.1 nm), catalase (5.22 nm), aldolase (4.81 nm), albumin (3.55 nm), ovalbumin (3.05 nm) and chymotrypsinogen A (2.09 nm) from Amersham-Pharmacia.

[3] = Analytical ultracentrifugation (AUC): sedimentation velocity and equilibrium; format: physicochemical; details: for quaternary structure (monomer/dimer) by AUC: PBS buffer where stated; for Stokes' radius (Rs): sedimentation velocity experiments
Protocol: Buffer was changed using an Amicon device and DPP-IV proteins were allowed to equilibrate for at least four hours or longer as indicated in the text at 25° C. after buffer changes. The sedimentation coefficients (S) of the enzyme were estimated by a Beckman-Coulter XL-A analytical ultracentrifuge with an An60Ti rotor as described (25). Sedimentation velocity analysis was performed at 40,000 rpm at 25° C. with standard double sector aluminum centerpieces. The UV absorption of the cells was scanned every 5 min for 4 hours. Sedimentation equilibrium was performed at 20° C. with six-channel open centerpieces and then centrifuged at 12,000 rpm for 12 hours. The data from both sedimentation velocity and sedimentation experiments were analyzed with the SedFit version 8.7 program to obtain molecular weights and sedimentation coefficients (25). Sednterp version 1.07 program is used to obtain solvent density, viscosity, Stokes' radius (Rs) and anhydrous frictional ratio (f/fo).

DPP-IV [4] = experiment: Dilution experiment (specific activity after two-fold dilutions); format: biochemical, human; details: 200 nM to 1.6 nM enzyme, 16 hours at 25° C., 10 uM H-Gly-Pro-pNA
Protocol: Enzyme concentrations ranging from 200 nM to 1.6 nM were used in the dilution experiments. The experiments were carried out with consecutive two-fold dilutions in PBS containing 0.1% BSA and 1 mM DTT (dithiothreitol). The solution after dilution was incubated at 25° C. for 16 hours to ensure attainment of dimer-monomer equilibrium. The reaction was initiated by adding the substrate H-Gly-Pro-pNA at a final concentration of 10 uM for both wild type DPP-IV and H750A proteins. The initial rate of the reaction was recorded and converted to specific activity.

H750A monomers = H750A monomers (Homo sapiens, UniProt P27487, H750A); experiment: AUC of H750A in the presence of inhibitor or dipeptide product; details: PBS buffer, FIG. 14
H750A monomers, sequence (P27487 39-766 H750A): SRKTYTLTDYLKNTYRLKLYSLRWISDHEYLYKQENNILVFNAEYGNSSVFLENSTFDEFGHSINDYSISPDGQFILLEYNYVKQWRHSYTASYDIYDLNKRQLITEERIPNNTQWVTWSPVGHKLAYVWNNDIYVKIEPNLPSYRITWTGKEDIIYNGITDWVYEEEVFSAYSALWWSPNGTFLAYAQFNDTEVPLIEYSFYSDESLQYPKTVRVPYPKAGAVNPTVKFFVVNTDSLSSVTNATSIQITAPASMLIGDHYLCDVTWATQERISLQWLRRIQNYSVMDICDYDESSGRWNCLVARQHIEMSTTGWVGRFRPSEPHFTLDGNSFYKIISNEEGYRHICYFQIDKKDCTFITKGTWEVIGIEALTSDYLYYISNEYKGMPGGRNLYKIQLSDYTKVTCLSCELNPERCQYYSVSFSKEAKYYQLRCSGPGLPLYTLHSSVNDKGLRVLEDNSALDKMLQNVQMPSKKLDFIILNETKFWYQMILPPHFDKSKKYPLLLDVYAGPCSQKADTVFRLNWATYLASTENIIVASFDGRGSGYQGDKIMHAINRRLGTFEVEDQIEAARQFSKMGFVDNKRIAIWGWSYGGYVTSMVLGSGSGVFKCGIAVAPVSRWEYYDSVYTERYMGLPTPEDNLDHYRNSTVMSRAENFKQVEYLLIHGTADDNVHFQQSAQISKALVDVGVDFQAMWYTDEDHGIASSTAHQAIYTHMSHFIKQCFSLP
Protocol: AUC was performed for H750A in the presence of the proline-mimetic inhibitor and Gly-Pro dipeptide product, since the substrate Gly-Pro-pNA is cleaved by the enzyme.

| Compound | Km (DPP-IV [1]; PBS buffer) [µM] | kcat (DPP-IV [1]; PBS buffer) [s⁻¹] | Stokes' radius (Rs) [2] | Anhydrous frictional ratio (f/fo) ([3]; PBS buffer) | Sedimentation coefficient (s20, w) ([3]; PBS buffer) [S] | quaternary structure (monomer/dimer) by AUC [3] | Stokes' radius (Rs) ([3]; PBS buffer) | specific activity on dilution (DPP-IV [4]) | Km (DPP-IV [1]; High salt buffer) [µM] | kcat (DPP-IV [1]; High salt buffer) [s⁻¹] | AUC analysis or catalytic activities in low salt buffer (DPP-IV [1]; low salt buffer compared to PBS buffer (data not shown)) | Sedimentation coefficient (s20, w) ([3]; High salt buffer) | quaternary structure (subunit composition) by sedimentation velocity ([3]; High salt buffer (0.5 M sodium sulfate)) | Stokes' radius (Rs) ([3]; High salt buffer) | dimer formation of H750A monomers in the presence of the substance (H750A monomers) |
| --- | --- | --- | --- | --- | --- | --- | --- | --- | --- | --- | --- | --- | --- | --- | --- |
| sDPP-IV: endogenous DPP-IV purified from human semen | 96 | 73 | 5.9 nm and 5.9^a nm | 1.4 | 9.1 | homodimeric | 5.8^b nm | no decrease in specific activity |  |  |  |  |  |  |  |
| rDPP-IV: recombinant wild-type human DPP-IV (aa 39 to 766) from baculoviral infected insect cells | 90 | 87 | 5.6 nm and 5.6^a nm | 1.4 | 8.4 | non-spherical dimer | 5.0^b nm | no decrease in specific activity | 181 | 57 | no differences | 5.0 S and 4.9 S | dimer | 4.9^b nm |  |
| NCC(=O)N1CCC[C@H]1C(=O)O [G-P-OH, Gly-Pro] (H-Gly-Pro-OH) |  |  |  |  |  |  |  |  |  |  |  |  |  |  | did not associate to form dimers |
